Our source for the binding result and EC50 values is patent publication CN112079917A (CANVEST WUHAN BIOTECHNOLOGY CO LTD, dated 2020).

The target of one assay is BSA (UniProt P02769 25-607). Briefly: ELISA, IgG form. For orientation: An ELISA detects its analyte on a solid surface through an enzyme-linked reagent.
Assay [1] deals with SH02 HA毒株 (A/Shanghai/2/2013 H7N9) HA蛋白 (influenza A virus A/Shanghai/2/2013 H7N9). Kind of assay: ELISA, IgG form on HA protein.
Assay [2] concerns the target 17SF HA毒株 (A/Guangdong/17SF003/2016) HA蛋白 (influenza A virus A/Guangdong/17SF003/2016 (H7N9)). Kind of assay: ELISA, IgG form on HA protein.

Chain of BSA (P02769 25-607 limits assumed): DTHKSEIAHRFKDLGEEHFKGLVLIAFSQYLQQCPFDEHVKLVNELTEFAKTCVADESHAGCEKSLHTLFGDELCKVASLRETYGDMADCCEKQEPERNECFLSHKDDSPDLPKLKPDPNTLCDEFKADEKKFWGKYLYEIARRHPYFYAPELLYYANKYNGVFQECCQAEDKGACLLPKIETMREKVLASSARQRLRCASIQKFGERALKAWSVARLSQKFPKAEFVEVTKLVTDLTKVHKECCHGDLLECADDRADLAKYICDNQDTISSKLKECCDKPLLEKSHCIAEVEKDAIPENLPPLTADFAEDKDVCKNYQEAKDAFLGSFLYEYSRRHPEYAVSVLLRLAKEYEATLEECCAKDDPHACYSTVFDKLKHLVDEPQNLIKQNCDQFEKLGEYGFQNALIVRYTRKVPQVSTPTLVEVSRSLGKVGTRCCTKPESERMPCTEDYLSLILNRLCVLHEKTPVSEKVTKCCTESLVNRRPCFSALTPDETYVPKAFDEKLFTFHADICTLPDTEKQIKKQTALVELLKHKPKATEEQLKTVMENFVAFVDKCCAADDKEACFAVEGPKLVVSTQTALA

B1: H7N9病毒特异性识别抗体P51H08 (IgG形式) (antibody, V domains shown)
VH: QVQLVQSGGGLVQPGGSMRLSCAASGFTFSSYAMSWVRQAPGKGLEWVSGISGSGGSTYYADSVKGRFTISRDNSKNTLHLPMNSLRADDTAVYYCAKDLNWWPDYWGQGTLVTVSS
VL: SYVLTQPPSVSVAPGKTASMTCGGNNIGSKRVHWYQQKPGQAPVLVVYNDNERPSAIPERFSGSNSGNTATLTVSRVEAGDEADYYCLVWDSSSLHRVFGGGTKLTVLG
In the case of B1, in the assay with BSA, the binding result is “no binding”. For the same molecule, the EC50 (commonly the concentration needed to bring the measured effect to its halfway point) came out at 1.65 nM in assay [1] and 3.56 nM in assay [2].
